Data from the Human Domainome abundance scans (Beltran et al. 2025).
± gives the uncertainty stated by the source.

B1: Telomeric repeat-binding factor 2, residues 489 to 542; numbered along this chain, Q15554 (parent)
chain: KQKWTVEESEWVKAGVQKYGEGNWAAISKNYPFVNRTAVMIKDRWRTMKRLGMN
B2: Endonuclease CUE2, residues 9 to 47; numbered along this chain, P36075 (parent)
chain: HESKLSILMDMFPAISKSKLQVHLLENNNDLDLTIGLLL

Variants of: B1
Assay: abundance fitness (aPCA) (normalised: wild type 0, dead -1); higher = more abundant; growth selection in yeast, the domain comes from the species named
Details: Homo sapiens

Row | Variant | abundance fitness
1 | L51Y | -0.063 ± 0.12
2 | L51W | -0.05 ± 0.073
3 | L51E | 0.283 ± 0.075
4 | L51H | 0.031 ± 0.4
5 | L51V | 0.006 ± 0.05
6 | L51T | 0.101 ± 0.09
7 | L51I | -0.241 ± 0.13
8 | L51S | -0.025 ± 0.054
9 | L51P | -0.394 ± 0.063
10 | L51D | -0.259 ± 0.13
11 | L51G | -0.035 ± 0.052
12 | T47I | -0.094 ± 0.1
13 | T47Q | 0.042 ± 0.12
14 | T47N | -0.281 ± 0.38
15 | T47V | -0.157 ± 0.074
16 | T47R | -0.204 ± 0.048
17 | T47K | -0.05 ± 0.058
18 | T47E | 0.177 ± 0.071
19 | T47C | -0.083 ± 0.11
20 | T47A | 0.059 ± 0.065
21 | T47F | -0.658 ± 0.2
22 | T47W | -0.276 ± 0.065

Row | Variant | abundance fitness
23 | T47Y | 0.015 ± 0.047
24 | T47D | 0.145 ± 0.12
25 | T47P | -0.67 ± 0.19
26 | T47M | -0.18 ± 0.05
27 | T47S | -0.017 ± 0.079
28 | R50A | 0.007 ± 0.052
29 | R50P | -0.176 ± 0.11
30 | R50M | 0.007 ± 0.16
31 | R50V | -0.07 ± 0.074
32 | R50N | -0.054 ± 0.12
33 | R50S | 0.068 ± 0.056
34 | R50L | -0.252 ± 0.084
35 | R50F | 0.076 ± 0.094
36 | R50I | 0.286 ± 0.09
37 | R50E | 0.052 ± 0.099
38 | R50T | -0.016 ± 0.046
39 | R50Y | -0.456 ± 0.17
40 | R50W | -0.253 ± 0.14
41 | R50K | 0.178 ± 0.11
42 | R50H | -0.553 ± 0.21
43 | R50Q | -0.026 ± 0.043

Variants of: B2
Assay: as above
Details: Saccharomyces cerevisiae (strain ATCC 204508 / S288c)

Row | Variant | abundance fitness
44 | HESKLSILMDVFPAISKSKLQVHLLENNNDLDLTIGLLL [M11V] | -0.447 ± 0.058
45 | HESKLSILMDNFPAISKSKLQVHLLENNNDLDLTIGLLL [M11N] | -0.209 ± 0.26
46 | HESKLSILMDHFPAISKSKLQVHLLENNNDLDLTIGLLL [M11H] | -0.297 ± 0.14
47 | HESKLSILMDEFPAISKSKLQVHLLENNNDLDLTIGLLL [M11E] | -0.274 ± 0.051
48 | HESKLSILMDQFPAISKSKLQVHLLENNNDLDLTIGLLL [M11Q] | -0.077 ± 0.037
49 | HESKLSILMGMFPAISKSKLQVHLLENNNDLDLTIGLLL [D10G] | -0.099 ± 0.032
50 | HESKLSILMDMFPAISKSKLQRHLLENNNDLDLTIGLLL [V22R] | 0.026 ± 0.032
51 | HESKLSILMDMFPAISKSKLQVHLLENNNDLDYTIGLLL [L33Y] | -0.004 ± 0.047
52 | HESKLSILMDMFPAISKSKLQVHLLENNNDLDCTIGLLL [L33C] | 0.012 ± 0.053
53 | HESKLWILMDMFPAISKSKLQVHLLENNNDLDLTIGLLL [S6W] | -0.443 ± 0.074
54 | HESKLSILMDMFPAISKSKLQVHLGENNNDLDLTIGLLL [L25G] | 0.001 ± 0.035
55 | HESKLSILMDMFPAISKSKLQVHLSENNNDLDLTIGLLL [L25S] | -0.017 ± 0.047
56 | HESKLSILMDMFPAISKSKLQVHLQENNNDLDLTIGLLL [L25Q] | 0.073 ± 0.13
57 | HESKLSILMDMFPAISKSKLQVHLEENNNDLDLTIGLLL [L25E] | 0.041 ± 0.049
58 | HESKLSILMDMFPAISKSKLQVHLLENNSDLDLTIGLLL [N29S] | -0.065 ± 0.05
59 | HESKLSILMDMFPAISKSKLQVHLLENNWDLDLTIGLLL [N29W] | 0.039 ± 0.038
60 | HESKLSILMDMFPAISKSKLQVHLLENNTDLDLTIGLLL [N29T] | -0.402 ± 0.088
61 | HESKLSILMDMFPAISKSKLQVHLLENNNDHDLTIGLLL [L31H] | -0.676 ± 0.27
62 | HESKLSILMDMFPAISKSKLQVHLLENNNDLDLDIGLLL [T34D] | -0.88 ± 0.13
63 | HERKLSILMDMFPAISKSKLQVHLLENNNDLDLTIGLLL [S3R] | -0.329 ± 0.04
64 | HEKKLSILMDMFPAISKSKLQVHLLENNNDLDLTIGLLL [S3K] | -0.094 ± 0.097
65 | HEPKLSILMDMFPAISKSKLQVHLLENNNDLDLTIGLLL [S3P] | -0.453 ± 0.12
66 | HESKLSILMDMFPAISKSKLQVHLLENNNDLDLTIGLKL [L38K] | -0.983 ± 0.11

Row | Variant | abundance fitness
67 | HESKLSILMDMFPPISKSKLQVHLLENNNDLDLTIGLLL [A14P] | -0.383 ± 0.076
68 | HESKLSILMDMFPEISKSKLQVHLLENNNDLDLTIGLLL [A14E] | 0.068 ± 0.039
69 | HESKLSIAMDMFPAISKSKLQVHLLENNNDLDLTIGLLL [L8A] | -1.02 ± 0.18
70 | HESKLSIGMDMFPAISKSKLQVHLLENNNDLDLTIGLLL [L8G] | -0.913 ± 0.065
71 | HESKLSILMDMFPAISKSKLQVWLLENNNDLDLTIGLLL [H23W] | -0.305 ± 0.056
72 | HESKLSILMDMFPAISKSKLQVHLLENSNDLDLTIGLLL [N28S] | 0.035 ± 0.049
73 | HESKLSILMDMFPAISKSKLQVHLLENVNDLDLTIGLLL [N28V] | -0.469 ± 0.056
74 | HESKDSILMDMFPAISKSKLQVHLLENNNDLDLTIGLLL [L5D] | -0.928 ± 0.25
75 | KESKLSILMDMFPAISKSKLQVHLLENNNDLDLTIGLLL [H1K] | 0.312 ± 0.062
76 | WESKLSILMDMFPAISKSKLQVHLLENNNDLDLTIGLLL [H1W] | 0.05 ± 0.039
77 | RESKLSILMDMFPAISKSKLQVHLLENNNDLDLTIGLLL [H1R] | 0.284 ± 0.035
78 | HESKLSILMDMFCAISKSKLQVHLLENNNDLDLTIGLLL [P13C] | -0.67 ± 0.18
79 | HESKLSILMDMFLAISKSKLQVHLLENNNDLDLTIGLLL [P13L] | -0.795 ± 0.1
80 | HESKLSILCDMFPAISKSKLQVHLLENNNDLDLTIGLLL [M9C] | -0.159 ± 0.057
81 | HESKLSILEDMFPAISKSKLQVHLLENNNDLDLTIGLLL [M9E] | -0.03 ± 0.054
82 | HESKLSILMDMFPAISKSKLQVHLLENNNDLDLTDGLLL [I35D] | -0.78 ± 0.11
83 | HESKLSILMDMFPAISKSKLQVHLLENNNDLDLTGGLLL [I35G] | -0.596 ± 0.044
84 | HESKLSILMDMFPAISKSKLQVHLLENNNDLDLTNGLLL [I35N] | -0.532 ± 0.17
85 | HESKLSILMDMFPAISKSKLQVHLLENNNDLDLTAGLLL [I35A] | -0.04 ± 0.043
86 | HESKLSILMDMFPAISKSKLQVHLLENNNDLDLTINLLL [G36N] | -0.054 ± 0.45
87 | HESKLSILMDMFPAISKSKLQVHLLENNNDLDLTIFLLL [G36F] | -0.14 ± 0.094
88 | HESKLSILMDMFPAISKSKLQVHGLENNNDLDLTIGLLL [L24G] | -0.929 ± 0.07
89 | HESKLSILMDMFPAISKSKLQVHRLENNNDLDLTIGLLL [L24R] | -0.855 ± 0.066

Row | Variant | abundance fitness
90 | HESKLSILMDMFPAISKSKLQVHVLENNNDLDLTIGLLL [L24V] | -0.849 ± 0.061
91 | HESKLSILMDMFPAISKSKLQVHPLENNNDLDLTIGLLL [L24P] | -0.982 ± 0.21
92 | HESKLSILMDMFPAISKSKLQVHLLWNNNDLDLTIGLLL [E26W] | -0.639 ± 0.071
93 | HESKLSILMDMFPAISKSKLQVHLLNNNNDLDLTIGLLL [E26N] | 0.381 ± 0.095
94 | HESKLSILMDMFPAISKSKLQVHLLKNNNDLDLTIGLLL [E26K] | -0.086 ± 0.14
95 | HESKLSILMDMFPAISKWKLQVHLLENNNDLDLTIGLLL [S18W] | -0.178 ± 0.044
96 | HNSKLSILMDMFPAISKSKLQVHLLENNNDLDLTIGLLL [E2N] | 0.167 ± 0.078
97 | HPSKLSILMDMFPAISKSKLQVHLLENNNDLDLTIGLLL [E2P] | -0.035 ± 0.066
98 | HESQLSILMDMFPAISKSKLQVHLLENNNDLDLTIGLLL [K4Q] | -0.023 ± 0.052
99 | HESSLSILMDMFPAISKSKLQVHLLENNNDLDLTIGLLL [K4S] | -0.001 ± 0.065
100 | HESELSILMDMFPAISKSKLQVHLLENNNDLDLTIGLLL [K4E] | -0.011 ± 0.034
101 | HESKLSILMDMFPAISKSKLQVHLLEENNDLDLTIGLLL [N27E] | -0.134 ± 0.094
102 | HESKLSILMDMGPAISKSKLQVHLLENNNDLDLTIGLLL [F12G] | -0.905 ± 0.15
103 | HESKLSILMDMFPAISVSKLQVHLLENNNDLDLTIGLLL [K17V] | -0.196 ± 0.042
104 | HESKLSILMDMFPAISCSKLQVHLLENNNDLDLTIGLLL [K17C] | -0.356 ± 0.12
105 | HESKLSILMDMFPAISMSKLQVHLLENNNDLDLTIGLLL [K17M] | -0.307 ± 0.11
106 | HESKLSILMDMFPAISKSKLQVHLLENNNDLDLTIGLLE [L39E] | 0.154 ± 0.05
107 | HESKLSILMDMFPAISKSMLQVHLLENNNDLDLTIGLLL [K19M] | -0.095 ± 0.088
108 | HESKLSILMDMFPAISKSKLNVHLLENNNDLDLTIGLLL [Q21N] | 0.807 ± 0.49
109 | HESKLSILMDMFPAISKSKLQVHLLENNNDLVLTIGLLL [D32V] | -0.302 ± 0.045
110 | HESKLSILMDMFPAISKSKLQVHLLENNNHLDLTIGLLL [D30H] | -0.145 ± 0.2
111 | HESKLSILMDMFPAISKSKLQVHLLENNNALDLTIGLLL [D30A] | -0.286 ± 0.035
112 | HESKLSILMDMFPAISKSKLQVHLLENNNELDLTIGLLL [D30E] | -0.171 ± 0.042
